According to the DeepSol protein solubility set:

Assay: soluble on expression in E. coli; label from the status in PepcDB or PDB records

Sequence | soluble on expression in E. coli
MSVGQTLAEKILSHKVGRPVRAGELVVVEVDQVMVVDSIAGSFFKRLEYLEATPRYPERVSIVIDHVAPAANLEVAKAQKEIREWGKRHGIRVFDVGRGVCHQVLIEEGLAQPGWVVVGSDSHSTTYGAVGAFGTGMGATDIALAAASGRTWLRVPESVKVVFRGRLPKGVTAKDAALEMVRLLTAEGATYMAVEIHLLDGAEALTRGERMTLANLTVEAGAKAGLVVPSGEILEMYRVPDWLYPDPDARYAKEVEIDLSALTPRVSVPFYVDNVHEVAQVKGKRVDQVFIGTCTNGRIEDLRAAAEVLKGRKVAPWVRLLVVPASSQVLEEAARDGTLLTLLEAGATIGTPGCGPCMGRHMGVLAPGEVCVSTSNRNFRGRMGAPDAEIYLASPRVAAASAVAGYLTTPEELEEEEVHA | soluble
MSVIIVGGGMAGATLALAISQFSHGTLPVHLIEAKAPEADGHPGFDARAIALAAGTCQQLARIGVWQAISDCATAINTVHVSDRGHAGFVTLDAQDYSLAALGHVAELHDIGLRLFALLRKAPGVTLHCPERVASVSRTQQQVNVTLENGNVIAGSVLVAANGTHSALASRCGVDWHQEPYEQLAVIANVATAIPHQGRAFERFTPNGPLAMLPMSHGRCSLVWCHPLDQRDEVLSWSDAQFCHALQAAFGWRLGRITQAGKRSAYPLALTTAAKVFSHRTVVVGNAAQTLHPIAGQGFNLGLRDVMSLAETLVAAQDAGEDIGAWHVLSRYQQRRQVDRDTTIGVTNGLVHLFANRWAPLVIGRNIGLMAMELLPPARDALAQRTLGWVARLEHHHHHH | not soluble
MSVKEPEKFLASHIYNIDYQEDLNKCFANLCTNKKNTILLESAEIDTKDKLKSILVLNSALRIACIENKVFIKPLSENGKYALKAIQENIKKDVDYKYDNNQLVLTFEFIKDYQLSESQKLKKPSVFDALRIIKDSFEIYNEFSIFLAGLFAYDVVASFENIGKIKRKNKCPDYVFYLADTILVSDHQEQKTFIQVNSFGHQTITDLEDSVAAIKQNINNDIELKVEKFKNIEPKESINDRDFCIVVDKLKSHIIDGDIFQVVPSRSFFLPCQNSLEVYKELKRTNPSPYMFYMQDEDFILFGASPESALKYQKSTNQVEIYPIAGTRRRAKNSDGSINADLDSRIELELRLDAKENAEHMMLVDLARNDVARISKTGTRYVADLLKVDRYSHVMHLVSRVVGQLADDLDALHAYQASMNMGTLTGAPKIKAMQLISEVEKQTRGVYGGAIGYFNGYGDLDSCIVIRSAYVENGVAEIQAGAGVVLDSIPIAEADETRTKAQAVISAIKNVHGV | not soluble
MSVKHHDVIIIGAGAAGLMCAATAGYRGRDVLVLDNAKQAGRKILISGGGRCNFTNLKVEPANFICGNPHFVKSALARYPSQQFIELVERHGIEYHERDHGQLFCNDSAKEIVTMLLTECEWAGVSIKLRTDILSVGKNEAGRFELNTSNGELSCDSLVIATGGLSMPKLGATPYGYQLAEQFGLKVLPTHAGLVPFTWHSEDKIRFEPLSGIAVPSRITAKDGTAFSEALLFTHRGLSGPAILQISNYWKAGETIKINLLPNMDAAQAIEQQLAAHPKQSLRNTLSLWLPKRLVEVLFDEVLLNKALNQLVHAERAKLVDDLHRWTVLMNGTEGYRTAEVTLGGVDTHELSSKTMEAIKVPGLFFIGEVMDVSGWLGGFNFQWAWASGVAAGKAV | not soluble
MSVLDLVALSEGMTAGEAIAHSVRAAQIAEEHNYARFWVAEHHNSEGLASSATTLLMGHIAGHTSRIRVGSGGIMMPNHSALHVAEELGTLEAIYPGRIEAGLGRAPGTDPMTARELGRASSLVDDVLSTIVSLQNYLDTPEERPNIIAHPGINSRVPLFMLGSSLNGAAMAAKLDLPFAFASHFAPFQMGPAIASYRELAANPYVMAAANVLVCDTEEEAEFQISTLHQMFAGIVTNSRGKLAPPVRNLKDKLDPMIWKHIEDSLEMTFIGTAESVVLQLQEFADRYKLDEIITVTYSYDPEVRFRSIAALGT | not soluble
MSVLRRLTWLAFPLLSMAFNVQANTAPAQLNKAELEQRFAKLGLQVEEIKTSDINGLLEVQTSGGVLFSSPDGEHFIAGTLYALDGNGGYVDVLAKRQAPLNAKKIAALQDSMIEFKAPNEKYAITVFTDITCGYCVRLHSQIKEYNDLGITVRYLAYPRQGPQGQVADQMAAIWCSNDPKAAMHDAKVNRKTITADKDIAQCQKTIAQHYMLGHELGISGTPAIFLPNGEMVGGYLPAPQLLQRLQATQ | not soluble
MSVMADRLDNMDITVSSPDGNIEGRYRRRGELTLEFRGDAYEQYRQHTLEHQLARLATLLWTGYQREYDAAVSEVVGHPVKDERHLWDANRRRYREAQRATAASGMSAGGRVYIENTGMLSWHVVIRDGTLGELTAAEFASECLSAFDALWRDYRSKMAALRAEHYGLSFASKRRERQPRH | not soluble
MSVPFLQQYRVGSYILKQKLAGNKRYPLVLMLEPLFQCNLACAGCGKIDYPEETLRRRLSVDECLHAVDECGAPVVSIAGGEPLIHKEMPQIVQGIIQRKKFVYLCTNALLLDTRMDDYQPSPYLTFSIHLDGNRERHDASVCREGVYDKVIPVIEQALQRGFRVTVNCTLFQSETAEEVAEFFDTATKLGVEGINVSPGFSYEHAPRQDVFLQRSVSKRLFRSIFEIGKKRKLPWKFNHSSLYLDFLAGNQSYKCTPWGNPTRNLFGWQRPCYLLVDEGYATSFRELMEETDWDRYGVGNNPKCANCMAHCGFEPTAINDTFAHPLKALRVSMRGPRVEGPMALDPLQTSSESQHNTDKRKPFPIPVTVEHKTVAPSSDHSSGPDN | not soluble
MSVRIEDHAMLGNCHSAALVDHRGTIGWLCLPRFDSDAVFAALLGDQQHGQWALSPAADFRTERAYQDDSLVLCTRMITDSGTVELIDFMVASENGEVHQHLVRIVRCVQGSVPMHMRLTFRFNYGRTLEHHHHHH | soluble
MSVRRLADDVYQPAEFSFTKENQIWVKNTIEKYPVGREQSAVIPLLMRAQEQDGWVTRAAIEHIAQILSMAYIRVLEIATFYTQFQLQPVGTKAHIQVCGTTPCMLRGSEELIKVCQKKIHHKPFVTNQDGSLSWEEVECLGACVNAPMVMIFKDTYEDLTAKRLEEIIDAFEAGKGAEIAVGPQNSRKSSEPISGLTSLIDEKEQKSLKSLKKKDKKEMGA | not soluble
MSVVSNHHSNGNGNSTVYDTNGNDEIKKEVKDEPMASDSEVPFGELMKRDKKEKKQKKRKAESGSDEDDYKPEKRKSSAKNGKKKDVGSDSEDDYKPEKKKSKKNNKKKAQESSEDDDEESEGDVSEEDVKPQIHSDDELEEEDEAPTTDDEEEQKRKEKERRKKEKREKKERKEKKRLEKENRKIKEEDDEDSDDEDDEKAKKKKRKSKGAEKSKPSTSKKDAGGKKEPPKKKVKKEEDIEDIWEWWKEEKKPAGVKWNSLQHCGPLFAPPYIPLPSHVHFKYGGEKMKLTLETEEIAQFYAGVLDHEYSTKEAFNKNFMKDWRKVMTVEERERIHDLKKCDFRAIDAYQKEQREIRKAMTKEEKLKIKEEKEAEVKIYGIAIIDGHRQKVANFRIEPPGVFRGRGGHPKMGLIKKRIMPEDVIINCGKDTEIPKPPPGHKWKEVRHDNTVTWLCSWTESVLGQNKYIMLNPSSKIKGEKDFEKYETARRLKKKIGGIRERYTDDFKSKEMRVRQRATALYFIDKLALRAGNEKDVDEAADTVGCCSLRVEHIKLFDSAKLNEDDKKEKEFVVEFDFLGKDSIRYFNRVSVEKRVYKNLKIFMEGKAPSDDLFDRLDTATLNDHLRSLMDGLTVKVFRTYNASITLQEQLIKLTNPKDNVAAKILSYNRANRQVAILCNHQRAVSKGFDESMQKLEQKIKDKKKEVKEAEAALKSARGAEKEKAQKKYDRLKEQLKKLKISRTDKDENKQIALGTSKLNYIDPRITVAWCKKFEVPLEKVFTKTHREKFRWAIDMTNSSDEEYVF | soluble
MSWLKEVIGTEKAVIAMCHLRALPGDPSFDAQLGMNWVIDKAWDDLMALQNGGVDAVMFSNEFSLPYLTKVRPETTAAMARIIGQLMSDIRIPFGVNVLWDPVASFDLAMATGAKFIREIFTGAYASDFGVWDTNVGETIRHQHRIGAGEVKTLFNIVPEAAVYLGNRDICSIAKSTVFNNHPDALCVSGLTAGTRTDSALLKRVKETVPDTVVLANTGVCLENVEEQLSIADGCVTATTFKKDGVFANFVDQARVSQFMEKVHHIRR | not soluble
MSYDYIVSQYLAYIKDITLEGCKAEEIFDYFKDKLNIVSKEGCDKPYIKVYKNNRLYFSYYGIPAINEFWPFLNALVRISNNVIQLDEKEKELAANIRGNIKLFVTPDCTKCPIAAELLYQLPILNSNISLEIIDVTTYDDLGKKHRVLNVPKIVLNEKTEIPGSFPPTIILKMLAKGSEQH | soluble
